# Reference: patent US20220204611A1 (Amgen, published 2022)
# T1: human TREM2 on cells (human, UniProt Q9NZC2 19-230)
# T1 sequence: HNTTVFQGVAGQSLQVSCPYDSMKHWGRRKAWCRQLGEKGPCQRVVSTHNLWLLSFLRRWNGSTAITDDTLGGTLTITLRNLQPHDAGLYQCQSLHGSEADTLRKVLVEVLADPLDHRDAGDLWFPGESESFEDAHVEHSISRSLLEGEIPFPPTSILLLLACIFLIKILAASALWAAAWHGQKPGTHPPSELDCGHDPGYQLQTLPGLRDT
# T2: recombinant soluble human TREM2 protein (human TREM2 ECD-FlagHis) (human, UniProt Q9NZC2 19-174)
# T2 sequence: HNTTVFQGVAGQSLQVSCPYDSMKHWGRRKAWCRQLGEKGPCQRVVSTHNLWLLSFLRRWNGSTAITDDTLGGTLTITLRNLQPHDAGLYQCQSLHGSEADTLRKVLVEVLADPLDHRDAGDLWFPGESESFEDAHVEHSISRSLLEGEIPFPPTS
# T3: soluble human TREM2 protein (TREM2 ECD-huIgG1 Fc fusion protein) (human, UniProt Q9NZC2 19-174, biotinylated)
# T3 construct: also called biotinylated soluble human TREM2 protein
# T3 sequence: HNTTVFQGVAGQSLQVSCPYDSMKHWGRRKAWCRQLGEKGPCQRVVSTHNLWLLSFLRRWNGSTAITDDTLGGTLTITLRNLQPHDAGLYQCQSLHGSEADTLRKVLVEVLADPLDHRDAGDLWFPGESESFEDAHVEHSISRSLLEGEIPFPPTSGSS
# T4: human TREM2 (human, UniProt Q9NZC2 19-174, limits assumed)
# T4 sequence: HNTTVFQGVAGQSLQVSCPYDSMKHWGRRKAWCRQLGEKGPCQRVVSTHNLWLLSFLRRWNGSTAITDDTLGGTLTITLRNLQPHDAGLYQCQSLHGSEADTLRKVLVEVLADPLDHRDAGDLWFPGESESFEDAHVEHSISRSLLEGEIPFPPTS
# Columns and labels:
# human TREM2 on cells [1] = target: T1, human TREM2 on cells; assay: cell-based or functional assay
# human TREM2 on cells [2] = target: T1, human TREM2 on cells; assay: cell-based or functional assay; remark: listed apart in the source
# [3] = target: T2, recombinant soluble human TREM2 protein …; assay: Octet BLI binning; competitor: load Ab 5E3
# Experimental: (§1) Each of sixteen different anti-TREM2 antibodies produced from hybridomas were quantitated and loaded onto one of the anti-human Fc sensors at 5 μg/mL for 2 minutes (“Load Antibody”). The sensor was then blocked with 100 μg/mL of an irrelevant human IgG2 antibody for 5 minutes. […] Next, each of the sixteen different anti-TREM2 antibodies (“Sandwich Antibody”) was added to the sensor at 5 μg/mL and allowed to bind for 5 minutes. All assay buffers contained 10 mM Tris (pH 7.6), 0.1% Triton X-100, 150 mM NaCl, 1 mM CaCl₂, and 1 mg/mL BSA. The assay was conducted at 25° C. Experimental kinetic results were fit to a 1:1 binding model.
# (§2) However, if addition of the sandwich antibody produces a binding event, then the sandwich antibody binds to a different epitope on human TREM2 than the load antibody and the two antibodies are categorized into different epitope bins.
# [4] = target: T2, recombinant soluble human TREM2 protein …; assay: Octet BLI binning; competitor: load Ab 6E7
# Experimental: as §1, §2
# [5] = target: T2, recombinant soluble human TREM2 protein …; assay: Octet BLI binning; competitor: load Ab 10E3
# Experimental: as §1, §2
# [6] = target: T2, recombinant soluble human TREM2 protein …; assay: Octet BLI binning; competitor: load Ab 13E7
# Experimental: as §1, §2
# [7] = target: T2, recombinant soluble human TREM2 protein …; assay: Octet BLI binning; competitor: load Ab 16B8
# Experimental: as §1, §2
# [8] = target: T2, recombinant soluble human TREM2 protein …; assay: Octet BLI binning; competitor: load Ab 24F4
# Experimental: as §1, §2
# [9] = target: T2, recombinant soluble human TREM2 protein …; assay: Octet BLI binning; competitor: load Ab 24G6
# Experimental: as §1, §2
# [10] = target: T2, recombinant soluble human TREM2 protein …; assay: Octet BLI binning; competitor: load Ab 26F2
# Experimental: as §1, §2
# [11] = target: T2, recombinant soluble human TREM2 protein …; assay: Octet BLI binning; competitor: load Ab 32E3
# Experimental: as §1, §2
# [12] = target: T2, recombinant soluble human TREM2 protein …; assay: Octet BLI binning; competitor: load Ab 24A10
# Experimental: as §1, §2
# [13] = target: T2, recombinant soluble human TREM2 protein …; assay: Octet BLI binning; competitor: load Ab 25F12
# Experimental: as §1, §2
# [14] = target: T2, recombinant soluble human TREM2 protein …; assay: Octet BLI binning; competitor: load Ab 26A10
# Experimental: as §1, §2
# [15] = target: T2, recombinant soluble human TREM2 protein …; assay: Octet BLI binning; competitor: load Ab 26C10
# Experimental: as §1, §2
# [16] = target: T3, soluble human TREM2 protein (TREM2 …); assay: ELISA, hybridoma supernatant on captured biotinylated TREM2 ECD-Fc
# Experimental: Exhausted hybridoma supernatants were tested for binding to human TREM2 by ELISA. Briefly, neutravidin plates were generated by incubating a 384 well Corning Assay Plate 3702 with neutravidin (Thermo 3100B) at 10 μg/mL (40 μL/well) in 1× PBS at 4° C. overnight. The plates were washed with 1× PBS using a Biotek plate washer and then blocked with 1% milk/1× PBS (90 μL/well) at room temperature (RT) for 30 minutes. The plates were then washed again with 1× PBS using the plate washer. […] The plates were then incubated at RT for 1 hour to immobilize the TREM2 protein to the wells of the plates. Following the incubation, the plates were again washed with 1× PBS using the plate washer. 10 μL of each hybridoma supernatant to be tested and 40 μL of 1% milk/1× PBS (1:5 dilution) were added to each well of the plates and incubated at RT for 1 hour. Again, the plates were washed with 1× PBS using the plate washer. […] After the plates were washed with 1× PBS using the plate washer, 40 μL/well of TMB substrate (Neogen, lot #150114) was added to the plates and the plates were incubated at RT for 30 minutes. The reaction was quenched with 1N hydrochloric acid (40 uL/well) following the incubation period. OD readings at 450 nm were obtained with a plate reader.
# human TREM2 [17] = target: T4, human TREM2; assay: yeast-displayed Fab FACS, 2nd screen 2 nM
# human TREM2 [18] = target: T4, human TREM2; assay: yeast-displayed Fab FACS, 1st screen 10 nM
# human TREM2 [19] = target: T4, human TREM2; assay: yeast-displayed Fab FACS, 2nd screen 10 nM
Binder,pSyk EC50 (human TREM2 on cells [1]) [nM],binding signal fold over 6E7 parental (human TREM2 [17]) [fold],binding signal fold over 6E7 parental (human TREM2 [18]) [fold],binding signal fold over 6E7 parental (human TREM2 [19]) [fold],other results
"33B12 (antibody, V domains shown, human IgG2 from hybridoma) VH: EVQLVESGGALVQPGGSLRLSCAASGFTFSSFGMSWVRQAPGKGLEWVSYISKSSFTIYYADSVKGRFTISRDNAKNSFYLQMNSLRDEDTAVYYCAREGGLTMVRGVSSYGLDVWGQGTTVTVSS VL: not shown",1,,,,"Emax (% maximum activation compared to RnD antibody) (human TREM2 on cells [2]): 246%; pSyk EC50, differentiated THP-1 cells (human TREM2 on cells [2]): 2.85 nM; sandwich binding signal [3]: -0.015; sandwich binding signal [4]: 0.52; sandwich binding signal [5]: 0.271; sandwich binding signal [6]: 0.287; sandwich binding signal [7]: -0.017; sandwich binding signal [8]: 0.454; sandwich binding signal [9]: 0.388; sandwich binding signal [10]: 0.002; sandwich binding signal [11]: 0.384; sandwich binding signal [12]: 0.47; sandwich binding signal [13]: 0.345; sandwich binding signal [14]: 0.023; sandwich binding signal [15]: -0.009; OD 450 [16]: 1.34 OD450"
"12G10 (antibody, human IgG2, V domains shown) VH: EVQLLESGGGLVQPGGSLRLSCAASGFTFSSYAMSWVRQAPGKGLEWVSAIGGGGVSTYCADSVKGRFTISRDNSKNTLYLQMNSLRAEDTAVYYCAKFYIAVAGSHFDYWGQGTLVTVSS VL: QAVPTQPSSLSASPGVLASLTCTLRSGINVGTYRIYWYQQKPGSPPQYLLRYKSDSDKQQGSGVPSRFSGSKDASANAGILLISGLQSEDEADYYCMIWYSSAVVFGGGTKLTVL",0.4,,,,
"14C12 (antibody, human IgG2, V domains shown, human IgG2 from hybridoma) VH: EVQLVQSGAEVKKPGESLMISCKGSGYSFTSYWIGWVRQMPGKGLEWMGIIYPGDSDTRYSPSFQGQVTISADKSISTAYLQWSSLKASDTAMYFCARRRQGIWGDALDFWGQGTLVTVSS VL: EIVMTQSPATLSVSPGERATLSCRASQSVSSNLAWFQQKPGQAPRLLIYGASTRATGIPARFSVSGSGTEFTLTISSLQSEDFAVYYCLQDNNWPPTFGPGTKVDIK",0.4,,,,OD 450 [16]: 0.71 OD450
"V84 (Fab, V domains shown) VH: EVQLVQSGAEVKKPGESLKISCKGSGYGFTSYWIAWVRQMPGKGLEWMGIIYPGDSDTRYSPSFQGQVTISADKSISTAYLQWSSLKASDTAMYFCARQRTFYYDSSDYSDYWGQGTLVTVSS VL: DIQMTQSPSSVSASVGDRVTITCRASQGISSWLAWYQQKPGKAPKLLIYGASSLQNGVPSRFSGSGSGTDFTLTISSLQPEDFATYFCQQADSFPRTFGQGTKLEIK",,1.45,1.44,1.62,
"V85 (Fab, V domains shown) VH: EVQLVQSGAEVKKPGESLKISCKGSGYSFRSYWIAWVRQMPGKGLEWMGTIYPGDSDTRYSPSFQGQVTISADKSISTAYLQWSSLKASDTAMYFCARSRTFYYDSSDYFDYWGQGTLVTVSS VL: DIQMTQSPSSVSASVGDRVTITCRASQGISSWLAWYQQKPGKAPKLLIYAASSRQNGVPSRFSGSGSGTDFTLTISSLQPEDFATYFCQQADSFPRTFGQGTKLEIK",,5.41,5.41,5.37,
"V86 (Fab, V domains shown) VH: EVQLVQSGAEVKKPGESLKISCKGSGYSFGSYWLAWVRQMPGKGLEWMGIIYPGDSDTRYSPSFEGQVTISADKSISTAYLQWSSLKASDTAMYFCARSRTFYYDSSDYFDYWGQGTLVTVSS VL: DIQMTQSPSSVSASVGDRVTITCRASQGISSWLAWYQQKPGKAPKLLIYAASSRQNGVPSRFSGSGSGTDFTLTISSLQPEDFATYFCQQADSFPRTFGQGTKLEIK",,5.17,4.8,5.02,
"V87 (Fab, V domains shown) VH: EVQLVQSGAEVKKPGESLKISCKGSGYSFRSYWIAWVRQMPGKGLEWMGIIYPGDSDVRYSPDFQGQVTISADKSISTAYLQWSSLKASDTAMYFCARSRTFYYDSSDYFDYWGQGTLVTVSS VL: DIQMTQSPSSVSASVGDRVTITCRASQGISSWLAWYQQKPGKAPKLLIYAASSLQWGVPSRFSGSGSGTDFTLTISSLQPEDFATYFCQQADSFPRTFGQGTKLEIK",,4.86,3.84,3.93,
"V88 (Fab, V domains shown) VH: EVQLVQSGAEVKKPGESLKISCKGSGYSFGSYWIAWVRQMPGKGLEWMGIIYPGDSDTRYSPSFQGQVTISADKSISTAYLQWSSLKASDTAMYFCARQRTFYYDSSDYFDYWGQGTLVTVSS VL: DIQMTQSPSSVSASVGDRVTITCRASQGISSWLAWYQQKPGKAPKLLIYAASRLQRGVPSRFSGSGSGTDFTLTISSLQPEDFATYFCQQADSSPRTFGQGTKLEIK",,5.57,4.92,5.3,
"V89 (Fab, V domains shown) VH: EVQLVQSGAEVKKPGESLKISCKGSGYSFTSYWIAWVRQMPGKGLEWMGIIYPGDSDTRYSPSFQGQVTISADKSISTAYLQWSSLKASDTAMYFCARQRTFYYDSSDYFDYWGQGTLVTVSS VL: DIQMTQSPSSVSASVGDRVTITCRASQGISSWLAWYQQKPGKAPKLLIYAASSLQNGVPSRFSGSGSGTDFTLTISSLQPEDFATYFCQQADSHPRTFGQGTKLEIK",,0.94,1.33,1.46,
